Experimental data taken from patent EP4700044A1, “PROTEIN ANALOGUE AND USE THEREOF” (Shanghai Duomirui Biotechnology., Ltd., priority 2023, dated 2024).
Substitutions are numbered along the chain they refer to.

B1: Compound 5.4: FGF21K122C mutant (SEQ NO: 8) modified by the albumin-binding agent of Example 2.1 (conjugate)
chain: HPIPDSSPLLQFGGQVRQRYLYTDDAQQTEAHLEIREDGTVGGAADQSPESLLQLKALKPGVIQILGVKTSRFLCQRPDGALYGSLHFDPEACSFRERLLEDGYNVYQSEAHGLPLHLPGNCSPHRDPAPRGPARFLPLPGLPPAPPEPPGILAPQPPDVGSSDPLSMVGGSQGRSPSYES
modifications: albumin-binding agent of Example 2.1
B2: Compound 5.6: FGF21D38C mutant (SEQ NO: 6) modified by the albumin-binding agent of Example 2.2 (conjugate)
chain: B1 chain with D38C, C122K
modifications: albumin-binding agent conjugated
B3: Compound 5.8: FGF21K122C mutant (SEQ NO: 8) modified by the albumin-binding agent of Example 2.2 (conjugate)
chain: B1 chain
modifications: albumin-binding agent conjugated
B4: Compound 5.13: FGF21D46C mutant (SEQ NO: 7) modified by the albumin-binding agent of Example 2.4 (conjugate)
chain: B1 chain with D46C, C122K
modifications: albumin-binding agent of Example 2.4
B5: Compound 5.11: FGF21K122C mutant (SEQ NO: 8) modified by the albumin-binding agent of Example 2.3 (conjugate)
chain: B1 chain
modifications: albumin-binding agent of Example 2.3
B6: Compound 5.12: FGF21H125C mutant (SEQ NO: 9) modified by the albumin-binding agent of Example 2.3 (conjugate)
chain: B1 chain with C122K, H125C
modifications: albumin-binding agent of Example 2.3
B7: Compound 5.10: FGF21D46C mutant (SEQ NO: 7) modified by the albumin-binding agent of Example 2.3 (conjugate)
chain: B1 chain with D46C, C122K
modifications: albumin-binding agent of Example 2.3
B8: Compound 5.9: FGF21H125C mutant (SEQ NO: 9) modified by the albumin-binding agent of Example 2.2 (conjugate)
chain: B1 chain with C122K, H125C
modifications: albumin-binding agent conjugated
B9: Compound 5.1: FGF21E30C mutant (SEQ NO: 5) modified by the albumin-binding agent of Example 2.1 (conjugate)
chain: B1 chain with E30C, C122K
modifications: albumin-binding agent of Example 2.1
B10: Compound 5.5: FGF21H125C mutant (SEQ NO: 9) modified by the albumin-binding agent of Example 2.1 (conjugate)
chain: B1 chain with C122K, H125C
modifications: albumin-binding agent of Example 2.1
B11: Compound 5.14: FGF21K122C mutant (SEQ NO: 8) modified by the albumin-binding agent of Example 2.4 (conjugate)
chain: B1 chain
modifications: albumin-binding agent of Example 2.4
B12: Compound 5.2: FGF21D38C mutant (SEQ NO: 6) modified by the albumin-binding agent of Example 2.1 (conjugate)
chain: B1 chain with D38C, C122K
modifications: albumin-binding agent of Example 2.1
B13: Compound 5.3: FGF21D46C mutant (SEQ NO: 7) modified by the albumin-binding agent of Example 2.1 (conjugate)
chain: B1 chain with D46C, C122K
modifications: albumin-binding agent of Example 2.1
B14: Compound 10.4: PAS-FGF21 dimer: PAS100FGF21 (SEQ ID NO: 16) modified by the side chain of Example 8.3 (conjugate)
chain: SPCASPAAPAPASPAAPAPSAPAAASAAAPAAASAAASAPSAASAAASPAAPSAPPAAASPAAPSAPPAAASPAAPAPASPAASAPSAPAAASPAAPAPASHPIPDSSPLLQFGGQVRQRYLYTDDAQQTEAHLEIREDGTVGGAADQSPESLLQLKALKPGVIQILGVKTSRFLCQRPDGALYGSLHFDPEACSFRERLLEDGYNVYQSEAHGLPLHLPGNKSPHRDPAPRGPARFLPLPGLPPAPPEPPGILAPQPPDVGSSDPLSMVGGSQGRSPSYES
modifications: dimer; side chain of Example 8.3
B15: Compound 10.3: PAS-FGF21 dimer: PAS50FGF21 (SEQ ID NO: 15) modified by the side chain of Example 8.3 (conjugate)
chain: SPCASPAAPAPASPAAPAPSAPAAASAAAPAAASAAASAPSAASAAASPAAHPIPDSSPLLQFGGQVRQRYLYTDDAQQTEAHLEIREDGTVGGAADQSPESLLQLKALKPGVIQILGVKTSRFLCQRPDGALYGSLHFDPEACSFRERLLEDGYNVYQSEAHGLPLHLPGNKSPHRDPAPRGPARFLPLPGLPPAPPEPPGILAPQPPDVGSSDPLSMVGGSQGRSPSYES
modifications: dimer; side chain of Example 8.3
B16: Compound 10.1: PAS-FGF21 dimer: PAS15FGF21 (SEQ ID NO: 13) modified by the side chain of Example 8.3 (conjugate)
chain: SPCASPAAPAPASPAAHPIPDSSPLLQFGGQVRQRYLYTDDAQQTEAHLEIREDGTVGGAADQSPESLLQLKALKPGVIQILGVKTSRFLCQRPDGALYGSLHFDPEACSFRERLLEDGYNVYQSEAHGLPLHLPGNKSPHRDPAPRGPARFLPLPGLPPAPPEPPGILAPQPPDVGSSDPLSMVGGSQGRSPSYES
modifications: dimer; side chain of Example 8.3
B17: Compound 10.5: PAS-FGF21 dimer: PAS200FGF21 (SEQ ID NO: 17) modified by the side chain of Example 8.3 (conjugate)
chain: SPCASPAAPAPASPAAPAPSAPAAASAAAPAAASAAASAPSAASAAASPAAPSAPPAAASPAAPSAPPAAASPAAPAPASPAASAPSAPAAASPAAPAPASPAAPAPSAPAAASAAAPAAASAAASAPSASAAASAAAPAAASAAASAPSAASSAASPAAPSAPPAAASPAAPSAPPAAASPAAPAPASPAAPAPSAPAAAHPIPDSSPLLQFGGQVRQRYLYTDDAQQTEAHLEIREDGTVGGAADQSPESLLQLKALKPGVIQILGVKTSRFLCQRPDGALYGSLHFDPEACSFRERLLEDGYNVYQSEAHGLPLHLPGNKSPHRDPAPRGPARFLPLPGLPPAPPEPPGILAPQPPDVGSSDPLSMVGGSQGRSPSYES
modifications: dimer; side chain of Example 8.3
B18: Compound 10.2: PAS-FGF21 dimer: PAS30FGF21 (SEQ ID NO: 14) modified by the side chain of Example 8.3 (conjugate)
chain: SPCASPAAPAPASPAAPAPSAPAAASAAAPAHPIPDSSPLLQFGGQVRQRYLYTDDAQQTEAHLEIREDGTVGGAADQSPESLLQLKALKPGVIQILGVKTSRFLCQRPDGALYGSLHFDPEACSFRERLLEDGYNVYQSEAHGLPLHLPGNKSPHRDPAPRGPARFLPLPGLPPAPPEPPGILAPQPPDVGSSDPLSMVGGSQGRSPSYES
modifications: dimer; side chain of Example 8.3
B19: Compound 12.5: Fatty acid-modified PAS-FGF21 dimer: PAS200FGF21 (SEQ ID NO: 17) modified by the side chain of Example 8.5 (conjugate)
chain: B17 chain
modifications: dimer; fatty acid side chain of Example 8.5

Biological target: T1, FGFR1c and the cofactor β-Klotho (Homo sapiens, UniProt P11362+Q86Z14)
T1 construct: host or cells: iLite FGF21 assay ready cells (genetically engineered reporter gene cell line)
T1 sequence (P11362 22-822): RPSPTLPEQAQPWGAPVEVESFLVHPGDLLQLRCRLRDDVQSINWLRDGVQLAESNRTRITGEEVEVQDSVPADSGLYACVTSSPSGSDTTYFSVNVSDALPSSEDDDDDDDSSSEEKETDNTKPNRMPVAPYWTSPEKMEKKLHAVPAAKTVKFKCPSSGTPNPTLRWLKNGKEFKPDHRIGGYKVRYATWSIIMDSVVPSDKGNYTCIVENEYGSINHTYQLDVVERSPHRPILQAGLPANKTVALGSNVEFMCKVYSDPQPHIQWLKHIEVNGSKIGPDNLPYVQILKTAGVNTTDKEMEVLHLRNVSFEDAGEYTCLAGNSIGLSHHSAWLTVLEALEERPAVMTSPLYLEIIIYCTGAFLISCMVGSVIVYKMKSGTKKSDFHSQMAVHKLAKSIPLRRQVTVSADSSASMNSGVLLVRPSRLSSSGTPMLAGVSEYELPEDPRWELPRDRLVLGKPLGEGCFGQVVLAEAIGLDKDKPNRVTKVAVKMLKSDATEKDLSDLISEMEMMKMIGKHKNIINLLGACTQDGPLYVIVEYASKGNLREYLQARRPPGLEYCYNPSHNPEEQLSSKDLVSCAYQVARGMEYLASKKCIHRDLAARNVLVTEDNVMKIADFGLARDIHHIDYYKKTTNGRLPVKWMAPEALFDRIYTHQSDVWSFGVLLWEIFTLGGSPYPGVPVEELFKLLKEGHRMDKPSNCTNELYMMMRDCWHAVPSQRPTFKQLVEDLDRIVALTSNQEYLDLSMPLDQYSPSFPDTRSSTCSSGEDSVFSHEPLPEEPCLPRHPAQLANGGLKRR
T1 sequence (Q86Z14 whole entry): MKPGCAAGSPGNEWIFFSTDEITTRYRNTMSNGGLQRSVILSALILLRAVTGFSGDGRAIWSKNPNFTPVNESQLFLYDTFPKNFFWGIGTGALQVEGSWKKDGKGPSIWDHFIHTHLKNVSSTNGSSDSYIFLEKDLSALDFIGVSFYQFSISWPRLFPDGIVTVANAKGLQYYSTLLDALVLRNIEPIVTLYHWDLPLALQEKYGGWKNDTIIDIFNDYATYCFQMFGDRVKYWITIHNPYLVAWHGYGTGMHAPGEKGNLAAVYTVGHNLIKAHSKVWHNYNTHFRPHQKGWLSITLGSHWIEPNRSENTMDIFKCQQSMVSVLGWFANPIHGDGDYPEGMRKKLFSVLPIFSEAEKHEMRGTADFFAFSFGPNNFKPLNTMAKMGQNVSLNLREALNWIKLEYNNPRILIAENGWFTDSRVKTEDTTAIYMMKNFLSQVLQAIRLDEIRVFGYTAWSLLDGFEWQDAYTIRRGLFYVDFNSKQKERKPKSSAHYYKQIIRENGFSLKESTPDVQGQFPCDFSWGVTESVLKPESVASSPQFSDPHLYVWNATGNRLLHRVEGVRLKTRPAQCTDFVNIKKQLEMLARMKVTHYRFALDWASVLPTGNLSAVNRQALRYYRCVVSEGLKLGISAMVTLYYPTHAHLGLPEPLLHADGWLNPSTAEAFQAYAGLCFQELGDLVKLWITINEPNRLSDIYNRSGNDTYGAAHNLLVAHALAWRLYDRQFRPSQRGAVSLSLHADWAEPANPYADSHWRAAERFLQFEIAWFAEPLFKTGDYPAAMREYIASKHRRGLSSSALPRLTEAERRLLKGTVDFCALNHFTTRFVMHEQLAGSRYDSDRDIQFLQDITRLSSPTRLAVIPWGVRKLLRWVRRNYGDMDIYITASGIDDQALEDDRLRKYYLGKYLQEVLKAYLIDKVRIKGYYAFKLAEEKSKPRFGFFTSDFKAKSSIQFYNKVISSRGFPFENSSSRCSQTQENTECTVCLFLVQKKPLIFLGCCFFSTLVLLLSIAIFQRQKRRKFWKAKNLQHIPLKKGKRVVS
Assay: dual-luciferase reporter gene assay in iLite FGF21 assay ready cells
Type: cell-based
Settings: Example 6, four-parameter fitting
Description: iLite FGF21 assay ready cells (purchased from SAVR) is a genetically engineered reporter gene cell line that responds to signals downstream to FGF21 agonism through the expression of firefly luciferase. The receptor FGFR1c and the cofactor β-Klotho were co-overexpressed on the surface of iLite FGF21 assay ready cells and have undergone genetic optimization to enhance sensitivity, such that FGF21 will cause an increase in luciferase expression in a dose-response manner. The luciferase activity detection kit was purchased from Promega (catalog number #E2980).
iLite FGF21 assay ready cells were cultured adherently in basal medium (DMEM Gluta Max, purchased from Gibco) containing 10% fetal bovine serum (FBS, purchased from Gibco) and 1% penicillin/streptomycin (purchased from Gibco). For the activity determination experiment, […] cells per well and test samples such as FGF21 mutant proteins and FGF21 conjugate molecules modified with albumin-binding agent were added to all-white 96-well culture plates (purchased from Corning), and the chemiluminescence values were detected in a microplate reader according to the instructions of the luciferase activity detection kit. Finally, the half-maximal effective concentration (EC50) values of the tested samples were obtained by means of four-parameter fitting.

EC50 [nM] | Molecule
0.99 | B1
2.06 | B2
1.13 | B3
1.84 | B4
2.09 | B5
1.4 | B6
2.69 | B7
1.18 | B8
4.61 | B9
0.52 | B10
1.02 | B11
1.99 | B12
0.24 | B13

Same assay, conditions: Example 11, four-parameter fitting

EC50 [nM] | Molecule
0.13 | B14
0.02 | B15
0.07 | B16
0.15 | B17
0.04 | B18

Same assay, conditions: Example 13, four-parameter fitting

EC50 [nM] | Molecule
0.09 | B19
